Measurements published in doi:10.1101/2020.12.02.408153.

Assays:
Experiment in all cases: SPR
[1] = target: SARS-CoV-2 extended S1 subunit (SARS-CoV-2) (UniProt P0DTC2)
[2] = target: SARS-CoV-2 spike glycoprotein ectodomain with double Strep II tag (SARS-CoV-2 | bacteriophage T4) (UniProt P0DTC2)
[3] = target: SARS-CoV-2 spike glycoprotein ectodomain with poly-histidine tag (SARS-CoV-2 | bacteriophage T4) (UniProt P0DTC2)

Chain of human angiotensin converting enzyme 2 (Q9BYF1 20-611): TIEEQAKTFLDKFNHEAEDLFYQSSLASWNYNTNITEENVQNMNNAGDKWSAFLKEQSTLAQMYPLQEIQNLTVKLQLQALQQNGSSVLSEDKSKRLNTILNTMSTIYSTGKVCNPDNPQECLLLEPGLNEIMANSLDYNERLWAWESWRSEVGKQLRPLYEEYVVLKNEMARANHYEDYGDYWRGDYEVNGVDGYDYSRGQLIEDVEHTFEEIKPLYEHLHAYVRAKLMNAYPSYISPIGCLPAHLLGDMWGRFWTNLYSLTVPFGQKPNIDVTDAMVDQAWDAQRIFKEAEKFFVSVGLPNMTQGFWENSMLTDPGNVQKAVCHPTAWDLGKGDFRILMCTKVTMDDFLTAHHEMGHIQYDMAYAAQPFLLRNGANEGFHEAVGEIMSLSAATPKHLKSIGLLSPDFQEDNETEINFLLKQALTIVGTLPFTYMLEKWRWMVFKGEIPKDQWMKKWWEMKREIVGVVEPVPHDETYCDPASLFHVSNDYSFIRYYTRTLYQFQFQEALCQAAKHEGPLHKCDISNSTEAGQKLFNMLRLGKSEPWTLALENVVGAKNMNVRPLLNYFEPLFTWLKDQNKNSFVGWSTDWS

Substance: human angiotensin converting enzyme 2 (from UniProt Q9BYF1-1 20-611) (receptor)
- Kd [1]: 610 nM
- Kd [2]: 370 nM
- Kd [3]: 370 nM

Substance: LL-37 (peptide)
- IC50 [1]: 170 nM
- Kd [1]: 200 nM
- IC50 [2]: 740 nM
- Kd [2]: 410 nM
- Kd [3]: 420 nM
